Numbering of substitutions follows the chain as printed. In names and notes the source's numbering stands.
T1: human IL-18BP (interleukin-18 binding protein, isoform A) (human, UniProt O95998 31-194)
T1 sequence: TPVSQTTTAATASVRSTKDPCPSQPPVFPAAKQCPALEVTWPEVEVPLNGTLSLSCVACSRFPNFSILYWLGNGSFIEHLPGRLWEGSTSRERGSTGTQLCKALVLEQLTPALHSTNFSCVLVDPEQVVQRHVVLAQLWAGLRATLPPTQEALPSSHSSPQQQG

T2: cynomolgus IL-18BP (cynomolgus monkey)
T2 construct: Generated in-house; also called cyIL-18BP; cyno IL-18BP
T2 chain: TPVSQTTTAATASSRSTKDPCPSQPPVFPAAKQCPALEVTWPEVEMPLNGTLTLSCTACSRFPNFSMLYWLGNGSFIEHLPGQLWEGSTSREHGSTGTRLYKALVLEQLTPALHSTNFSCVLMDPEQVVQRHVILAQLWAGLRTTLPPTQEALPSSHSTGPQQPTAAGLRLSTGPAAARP

B1: SA312a (antibody, human IgG1, V domains shown)
VH: QVQLQESGPGLVKPSQTLSLTCTVSGYSITQDYNAHWIRQPPGKGLEWIGYIHYSGSTMYNPSLKSRVTISRDTSKNQFSLKLSSVTAADTAVYYCARNYGSIYVNYFDYWGQGTLVTVSS
VL: EIVLTQSPATLSLSPGERATLSCSASSSVSYMYWYQQKPGQAPRPLIYRTSNLASGIPARFSGSGSGTDFTLTISSLEPEDFAVYYCQQYHSYPTFGGGTKVEIK
notes: humanized; human IgG1 (suffix a), kappa
B2: SA313a (antibody, human IgG1, V domains shown)
VH: B1 VH with Q31S, Y100F
VL: B1 VL
notes: as for B1
B3: SA311a (antibody, human IgG1, V domains shown)
VH: B1 VH with Q31S, S57Q
VL: B1 VL
notes: as for B1
B4: SA315a (antibody, human IgG1, V domains shown)
VH: B1 VH with Q31S, S57Q, Y100F
VL: B1 VL
notes: as for B1
B5: SA318a (antibody, human IgG1, V domains shown)
VH: B1 VH with S57Q, Y100F
VL: B1 VL
notes: as for B1
B6: SA317a (antibody, human IgG1, V domains shown)
VH: B1 VH with Q31S, M59L
VL: B1 VL
notes: as for B1
B7: SA316a (antibody, human IgG1, V domains shown)
VH: B1 VH with Q31S, M59Y
VL: B1 VL
notes: as for B1
B8: SA301a heavy chain variant N33bG, C34S (antibody, human IgG1, V domains shown)
VH: B1 VH with Q31S, N34G, A35S, M59N
VL: B1 VL
notes: library variant, human IgG1/kappa, from supernatant
B9: heavy chain library variant C34D (antibody, V domains shown)
VH: B1 VH with Q31S, A35D, M59N
VL: B1 VL
B10: heavy chain library variant C34Q (antibody, V domains shown)
VH: B1 VH with Q31S, A35Q, M59N
VL: B1 VL
B11: heavy chain library variant C34R (antibody, V domains shown)
VH: B1 VH with Q31S, A35R, M59N
VL: B1 VL
B12: heavy chain library variant C34I (antibody, V domains shown)
VH: B1 VH with Q31S, A35I, M59N
VL: B1 VL
B13: heavy chain library variant C34L (antibody, V domains shown)
VH: B1 VH with Q31S, A35L, M59N
VL: B1 VL
B14: heavy chain library variant C34F (antibody, V domains shown)
VH: B1 VH with Q31S, A35F, M59N
VL: B1 VL
B15: heavy chain library variant C34H (antibody, V domains shown)
VH: B1 VH with Q31S, A35H, M59N
VL: B1 VL
B16: heavy chain library variant C34K (antibody, V domains shown)
VH: B1 VH with Q31S, A35K, M59N
VL: B1 VL
B17: heavy chain library variant C34E (antibody, V domains shown)
VH: B1 VH with Q31S, A35E, M59N
VL: B1 VL
B18: heavy chain library variant C34P (antibody, V domains shown)
VH: B1 VH with Q31S, A35P, M59N
VL: B1 VL
B19: SA302a heavy chain variant N33bH, C34A (antibody, human IgG1, V domains shown)
VH: B1 VH with Q31S, N34H, M59N
VL: B1 VL
notes: as for B8
B20: SA302a heavy chain variant N33bI, C34A (antibody, human IgG1, V domains shown)
VH: B1 VH with Q31S, N34I, M59N
VL: B1 VL
notes: as for B8
B21: SA302a heavy chain variant N33bQ, C34A (antibody, human IgG1, V domains shown)
VH: B1 VH with Q31S, N34Q, M59N
VL: B1 VL
notes: as for B8
B22: SA302a heavy chain variant N33bM, C34A (antibody, human IgG1, V domains shown)
VH: B1 VH with Q31S, N34M, M59N
VL: B1 VL
notes: as for B8
B23: SA301a heavy chain variant N33bQ, C34S (antibody, human IgG1, V domains shown)
VH: B1 VH with Q31S, N34Q, A35S, M59N
VL: B1 VL
notes: as for B8
B24: SA301a heavy chain variant N33bM, C34S (antibody, human IgG1, V domains shown)
VH: B1 VH with Q31S, N34M, A35S, M59N
VL: B1 VL
notes: as for B8
B25: SA302a heavy chain variant N33bK, C34A (antibody, human IgG1, V domains shown)
VH: B1 VH with Q31S, N34K, M59N
VL: B1 VL
notes: as for B8
B26: SA301a heavy chain variant N33bS, C34S (antibody, human IgG1, V domains shown)
VH: B1 VH with Q31S, N34S, A35S, M59N
VL: B1 VL
notes: as for B8
B27: SA301a heavy chain variant N33bL, C34S (antibody, human IgG1, V domains shown)
VH: B1 VH with Q31S, N34L, A35S, M59N
VL: B1 VL
notes: as for B8
B28: SA301a heavy chain variant N33bV, C34S (antibody, human IgG1, V domains shown)
VH: B1 VH with Q31S, N34V, A35S, M59N
VL: B1 VL
notes: as for B8
B29: SA301a heavy chain variant N33bY, C34S (antibody, human IgG1, V domains shown)
VH: B1 VH with Q31S, N34Y, A35S, M59N
VL: B1 VL
notes: as for B8
B30: SA301a heavy chain variant N33bT, C34S (antibody, human IgG1, V domains shown)
VH: B1 VH with Q31S, N34T, A35S, M59N
VL: B1 VL
notes: as for B8
B31: SA301a heavy chain variant N33bP, C34S (antibody, human IgG1, V domains shown)
VH: B1 VH with Q31S, N34P, A35S, M59N
VL: B1 VL
notes: as for B8
B32: heavy chain library variant C34N (antibody, V domains shown)
VH: B1 VH with Q31S, A35N, M59N
VL: B1 VL
notes: position 34 variant, human IgG1/kappa, from supernatant; C is the SA44a residue
B33: SA301a heavy chain variant N33bK, C34S (antibody, human IgG1, V domains shown)
VH: B1 VH with Q31S, N34K, A35S, M59N
VL: B1 VL
notes: as for B8
B34: SA302a heavy chain variant N33bF, C34A (antibody, human IgG1, V domains shown)
VH: B1 VH with Q31S, N34F, M59N
VL: B1 VL
notes: as for B8
B35: SA302a heavy chain variant N33bT, C34A (antibody, human IgG1, V domains shown)
VH: B1 VH with Q31S, N34T, M59N
VL: B1 VL
notes: as for B8

Target: T1, human IL-18BP (interleukin-18 binding …)
Assay: cell-based or functional assay

Compared with B1, B2 is 1.8-fold lower in “EC50 in PBMC Assay 1 (endogenous IL-18BP), IFNγ” value: 2100 pM for the first, 1200 pM for the second.

B3 and B4 are within 1.5-fold of each other in “EC50 in PBMC Assay 1 (endogenous IL-18BP), IFNγ” value: 600 pM for the first, 500 pM for the second.

Compared with B5, B6 is 2.2-fold lower in “EC50 in PBMC Assay 1 (endogenous IL-18BP), IFNγ” value: 900 pM for the first, 400 pM for the second.

For B7, the “EC50 in PBMC Assay 1 (endogenous IL-18BP), IFNγ” value was 600 pM.

B1 and B2 are within 1.5-fold of each other in “EC50 in PBMC Assay 2 (precomplexed IL-18BP), IFNγ” value: 740 pM for the first, 710 pM for the second.

First: B3
Second: B4
The “EC50 in PBMC Assay 2 (precomplexed IL-18BP), IFNγ” value of the first is 2.5-fold higher: 1240 pM for the first, 490 pM for the second.

Going from B5 to B6, the “EC50 in PBMC Assay 2 (precomplexed IL-18BP), IFNγ” value falls from 700 pM to 450 pM (1.6-fold).

For B7, the “EC50 in PBMC Assay 2 (precomplexed IL-18BP), IFNγ” value was 640 pM.

Target: T1, human IL-18BP (interleukin-18 binding …)
Assay: BLI, affinity column of Table E8

First: B1
Second: B2
The Kd of the first is 2.3-fold lower: 117 pM for the first, 272 pM for the second. The first binds more tightly here.

Compared with B3, B4 is 6.2-fold lower in Kd: 243 pM for the first, 39 pM for the second. The second binds more tightly here.

Going from B5 to B6, the Kd rises from 15 pM to 329 pM (22-fold). The first binds more tightly here.

B7 was tested, and the Kd was 228 pM.

Target: T1, human IL-18BP (interleukin-18 binding …)
Assay: BLI (Octet), mAb on AHC biosensor

Going from B1 to B2, the Kd rises from 117 pM to 272 pM (2.3-fold).

Going from B3 to B4, the Kd falls from 243 pM to 39 pM (6.2-fold). The second binds more tightly here.

Going from B5 to B6, the Kd rises from 15 pM to 329 pM (22-fold).

In the case of B7, the Kd is reported as 228 pM.

Target: T1, human IL-18BP (interleukin-18 binding …)
Assay: BLI single-concentration screen, apparent KD

First: B8
Second: B9
The Kd of the first is 2.5-fold lower: 200 pM for the first, 500 pM for the second. The first binds more tightly here.

Going from B10 to B11, the Kd rises from 600 pM to 1800 pM (3-fold).

Compared with B12, B13 is 2.5-fold lower in Kd: 1000 pM for the first, 400 pM for the second.

First: B14
Second: B15
The Kd of the first is 1.5-fold higher: 600 pM for the first, 400 pM for the second. The second binds more tightly here.

B16 and B17 are within 1.5-fold of each other in Kd: 1000 pM for the first, 900 pM for the second.

First: B18
Second: B19
The Kd of the first is 26-fold higher: 20600 pM for the first, 800 pM for the second.

First: B20
Second: B21
The Kd of the first is 3-fold lower: 600 pM for the first, 1800 pM for the second. The first binds more tightly here.

Going from B22 to B23, the Kd rises from 900 pM to 1900 pM (2.1-fold).

Compared with B24, B25 is 6.3-fold lower in Kd: 1900 pM for the first, 300 pM for the second. The second binds more tightly here.

First: B26
Second: B27
The Kd of the first is 1.8-fold higher: 1400 pM for the first, 800 pM for the second. The second binds more tightly here.

Going from B28 to B29, the Kd rises from 400 pM to 1200 pM (3-fold).

First: B30
Second: B31
The Kd of the first is 8.3-fold lower: 300 pM for the first, 2500 pM for the second. The first binds more tightly here.

Going from B32 to B33, the Kd falls from 1000 pM to 400 pM (2.5-fold).

Compared with B34, B35 is 15-fold lower in Kd: 1500 pM for the first, 100 pM for the second.

Target: T2, cynomolgus IL-18BP
Assay: BLI single-concentration screen, apparent KD

B8 and B9 are within 1.5-fold of each other in Kd: 500 pM for the first, 400 pM for the second.

Going from B10 to B11, the Kd rises from 400 pM to 600 pM (1.5-fold). The first binds more tightly here.

Going from B12 to B13, the Kd falls from 600 pM to 300 pM (2-fold).

Compared with B14, B15 is 2.5-fold lower in Kd: 500 pM for the first, 200 pM for the second.

B16 and B17 are the same in Kd: 500 pM for the first, 500 pM for the second.

Going from B18 to B19, the Kd falls from 9800 pM to 600 pM (16-fold).

First: B20
Second: B21
The Kd of the first is 4-fold lower: 400 pM for the first, 1600 pM for the second.

B22 and B23 are within 1.5-fold of each other in Kd: 1000 pM for the first, 1100 pM for the second.

First: B24
Second: B25
The Kd of the first is 3.5-fold higher: 1400 pM for the first, 400 pM for the second.

Going from B26 to B27, the Kd falls from 1000 pM to 600 pM (1.7-fold).

Compared with B28, B29 is 3-fold higher in Kd: 300 pM for the first, 900 pM for the second. The first binds more tightly here.

Going from B30 to B31, the Kd rises from 400 pM to 1300 pM (3.2-fold). The first binds more tightly here.

Going from B32 to B33, the Kd rises from 600 pM to 900 pM (1.5-fold).

First: B34
Second: B35
The Kd of the first is 4.7-fold higher: 1400 pM for the first, 300 pM for the second. The second binds more tightly here.
